Results reported in patent US12448423 (Xencor, dated 2025).
Residue numbers refer to the chain shown, from its start. Numbers in names are those of the source.

T1: HIS-tagged human NKG2D (human, UniProt P26718 73-216, limits assumed)
T1 construct: Captured on HIS1K biosensors; not shown: HIS tag
T1 sequence (looked up): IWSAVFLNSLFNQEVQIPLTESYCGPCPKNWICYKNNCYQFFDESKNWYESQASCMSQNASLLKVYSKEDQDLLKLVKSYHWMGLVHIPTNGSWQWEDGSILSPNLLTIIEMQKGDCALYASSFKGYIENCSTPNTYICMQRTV

B1: XENP26009 (antibody, V domains shown)
VH: QVQLVQSGAEVKKPGASVKVSCKASGFNIKDTYIHWVRQAPGKGLEWMGRIDPDNGETLYASKFQGRVTITADTSINTAYMELSRLRSDDTAVYYCGRGYGYYVFDHWGQGTTVTVSS
VL: AIKMTQSPSSLSASVGDRVTITCRTSRSISKYLAWYQEKPGKTNKLLIYSGSTLQSGIPSRFSGSGSGTDFTLTISSLQPEDFATYYCQQHNENPLTFGAGTKLEIK
notes: also called OKT8_H2.152_L1.103 one-arm mAb
B2: XENP26237 (antibody, V domains shown)
VH: B1 VH with G56D, I70M
VL: B1 VL
notes: also called OKT8_H2.160_L1.103 one-arm mAb
B3: XENP26236 (antibody, V domains shown)
VH: B1 VH with I70M, Y100W
VL: B1 VL
notes: also called OKT8_H2.159_L1.103 one-arm mAb
B4: XENP26241 (antibody, V domains shown)
VH: B1 VH with G56D, I70M, Y102K
VL: B1 VL
notes: also called OKT8_H2.164_L1.103 one-arm mAb
B5: XENP26230 (antibody, V domains shown)
VH: B1 VH with I70M
VL: B1 VL
notes: also called OKT8_H2.153_L1.103 one-arm mAb
B6: XENP26239 (antibody, V domains shown)
VH: B1 VH with G56D, V104Y
VL: B1 VL
notes: also called OKT8_H2.162_L1.103 one-arm mAb
B7: XENP26233 (antibody, V domains shown)
VH: B1 VH with Y100W
VL: B1 VL
notes: also called OKT8_H2.156_L1.103 one-arm mAb
B8: XENP26232 (antibody, V domains shown)
VH: B1 VH with V104Y
VL: B1 VL
notes: also called OKT8_H2.155_L1.103 one-arm mAb
B9: XENP26234 (antibody, V domains shown)
VH: B1 VH with I70M, Y102K
VL: B1 VL
notes: also called OKT8_H2.157_L1.103 one-arm mAb
B10: XENP26243 (antibody, V domains shown)
VH: B1 VH with G56D, I70M, Y100W
VL: B1 VL
notes: also called OKT8_H2.166_L1.103 one-arm mAb
B11: XENP26019 (antibody, V domains shown)
VH: B1 VH
VL: B1 VL with K31I, S50K, H91A
notes: also called OKT8_H2.152_L1.113 one-arm mAb
B12: XENP26231 (antibody, V domains shown)
VH: B1 VH with Y102K
VL: B1 VL
notes: also called OKT8_H2.154_L1.103 one-arm mAb
B13: XENP26238 (antibody, V domains shown)
VH: B1 VH with G56D, Y102K
VL: B1 VL
notes: also called OKT8_H2.161_L1.103 one-arm mAb
B14: XENP26240 (antibody, V domains shown)
VH: B1 VH with G56D, Y100W
VL: B1 VL
notes: also called OKT8_H2.163_L1.103 one-arm mAb
B15: XENP26242 (antibody, V domains shown)
VH: B1 VH with G56D, I70M, V104Y
VL: B1 VL
notes: also called OKT8_H2.165_L1.103 one-arm mAb
B16: XENP26235 (antibody, V domains shown)
VH: B1 VH with I70M, V104Y
VL: B1 VL
notes: also called OKT8_H2.158_L1.103 one-arm mAb
B17: XENP27607 (antibody, human IgG1, kappa, V domains shown)
VH: EVQLVESGGGLVQPGGSLRLSCAVSGFSLTIYGVHWVRQAPGKGLEWVSVIWSGGSTDYNAKVKGRFTISKDNSKRTVYLQMNSLRAEDTAVYYCSRKSHDGYYGVMDYWGQGTTVTVSS
VL: DIQLTQSPDFQSVTPKEKVTITCRASQSIGTSIHWYQQKPDQSPKLLIKYASESISGIPSRFSGSGSGTDFTLTINSLEAEDAATYYCQQSNTWPLTFGAGTKVEIKR
notes: humanized bivalent anti-NKG2D mAb, IgG1 with ablation variants; also called mAb C[NKG2D]_H1L1_IgG1_PVA_/S267K
B18: XENP27608 (antibody, human IgG1, kappa, V domains shown)
VH: B17 VH
VL: DIQLTQSPSSLSASVGDRVTITCRASQSIGTSIHWYQQKPGKSPKLLIKYASESISGIPSRFSGSGSGTDFTLTISSLQPEDFATYYCQQSNTWPLTFGAGTKVEIKR
notes: humanized bivalent anti-NKG2D mAb, IgG1 with ablation variants; also called mAb C[NKG2D]_H1L2_IgG1_PVA_/S267K
B19: XENP27609 (antibody, human IgG1, kappa, V domains shown)
VH: QVQLVQSGAEVKKPGASVKVSCKVSGFSLTIYGVHWVRQAPGQGLEWMGVIWSGGSTDYNAKFQGRVTMTKDNSKRTVYMELSSLRSEDTAVYYCSRKSHDGYYGVMDYWGQGTTVTVSS
VL: B17 VL
notes: humanized bivalent anti-NKG2D mAb, IgG1 with ablation variants; also called mAb C[NKG2D]_H2L1_IgG1_PVA_/S267K
B20: XENP27610 (antibody, human IgG1, kappa, V domains shown)
VH: B19 VH
VL: B18 VL
notes: humanized bivalent anti-NKG2D mAb, IgG1 with ablation variants; also called mAb C[NKG2D]_H2L2_IgG1_PVA_/S267K

Each binder was assayed against T2, cynomolgus CD8 (captured on the Octet biosensor) (cynomolgus) (assay: Octet (BLI); cynomolgus CD8 captured, dipped into multiple concentrations of the one-arm mAb).
T2 construct: Construct not described; also called cyno CD8; cyno CD8a
A Kd of 77.6 nM, a koff of 0.00909 s⁻¹ and a kon of 117000 M⁻¹ s⁻¹ were found for B1 in this work.
A Kd of 67.4 nM, a koff of 0.00767 s⁻¹ and a kon of 114000 M⁻¹ s⁻¹ were found for B2 in this work.
A Kd of 55.1 nM, a koff of 0.00672 s⁻¹ and a kon of 122000 M⁻¹ s⁻¹ were found for B3 in this work.
A Kd of 67 nM, a koff of 0.00589 s⁻¹ and a kon of 88000 M⁻¹ s⁻¹ were found for B4 in this work.
A Kd of 39.2 nM, a koff of 0.00967 s⁻¹ and a kon of 247000 M⁻¹ s⁻¹ were found for B5 in this work.
A Kd of 66.6 nM, a koff of 0.00882 s⁻¹ and a kon of 133000 M⁻¹ s⁻¹ were found for B6 in this work.
A Kd of 66.6 nM, a koff of 0.0133 s⁻¹ and a kon of 200000 M⁻¹ s⁻¹ were found for B7 in this work.
A Kd of 35.7 nM, a koff of 0.0114 s⁻¹ and a kon of 319000 M⁻¹ s⁻¹ were found for B8 in this work.
A Kd of 55.6 nM, a koff of 0.00448 s⁻¹ and a kon of 80600 M⁻¹ s⁻¹ were found for B9 in this work.
A Kd of 55.9 nM, a koff of 0.0108 s⁻¹ and a kon of 192000 M⁻¹ s⁻¹ were found for B10 in this work.
A Kd of 80.7 nM, a koff of 0.00962 s⁻¹ and a kon of 119000 M⁻¹ s⁻¹ were found for B11 in this work.
A Kd of 95.9 nM, a koff of 0.00887 s⁻¹ and a kon of 92500 M⁻¹ s⁻¹ were found for B12 in this work.
A Kd of 107 nM, a koff of 0.00894 s⁻¹ and a kon of 83900 M⁻¹ s⁻¹ were found for B13 in this work.
A Kd of 75.4 nM, a koff of 0.0225 s⁻¹ and a kon of 298000 M⁻¹ s⁻¹ were found for B14 in this work.
A Kd of 30 nM, a koff of 0.00968 s⁻¹ and a kon of 322000 M⁻¹ s⁻¹ were found for B15 in this work.
A Kd of 33.5 nM, a koff of 0.00477 s⁻¹ and a kon of 143000 M⁻¹ s⁻¹ were found for B16 in this work.

These binders were tested against T3, human CD8 (captured on the Octet biosensor) (human, UniProt P01732 22-182, limits assumed) (assay: Octet (BLI); human CD8 captured, dipped into multiple concentrations of the one-arm mAb).
T3 construct: Construct not described; also called recombinant human CD8a
T3 sequence (P01732 22-182 limits assumed): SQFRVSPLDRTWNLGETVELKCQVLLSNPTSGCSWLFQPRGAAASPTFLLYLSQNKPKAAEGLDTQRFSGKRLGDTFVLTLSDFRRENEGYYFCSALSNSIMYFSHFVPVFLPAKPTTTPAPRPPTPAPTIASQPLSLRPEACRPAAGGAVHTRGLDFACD
A Kd of 55.6 nM, a koff of 0.0148 s⁻¹ and a kon of 265000 M⁻¹ s⁻¹ were found for B4 in this work.
A Kd of 48.2 nM, a koff of 0.0124 s⁻¹ and a kon of 258000 M⁻¹ s⁻¹ were found for B9 in this work.
A Kd of 3.14 nM, a koff of 0.00196 s⁻¹ and a kon of 626000 M⁻¹ s⁻¹ were found for B10 in this work.
A Kd of 95.5 nM, a koff of 0.0226 s⁻¹ and a kon of 236000 M⁻¹ s⁻¹ were found for B12 in this work.
A Kd of 96.6 nM, a koff of 0.0262 s⁻¹ and a kon of 271000 M⁻¹ s⁻¹ were found for B13 in this work.
A Kd of 1.38 nM, a koff of 0.000992 s⁻¹ and a kon of 718000 M⁻¹ s⁻¹ were found for B16 in this work.

What follows are binders tested against T1, HIS-tagged human NKG2D (assay: Octet (BLI): His-tagged human NKG2D captured on HIS1K biosensors, dipped into 100 nM bivalent mAb).
A Kd of 0.506 nM, a koff of 0.000357 s⁻¹ and a kon of 706000 M⁻¹ s⁻¹ were found for B17 in this work.
A Kd of 0.371 nM, a koff of 0.000308 s⁻¹ and a kon of 832000 M⁻¹ s⁻¹ were found for B18 in this work.
A Kd of 0.167 nM, a koff of 8.64e-05 s⁻¹ and a kon of 518000 M⁻¹ s⁻¹ were found for B19 in this work.
A Kd of 0.199 nM, a koff of 0.000145 s⁻¹ and a kon of 727000 M⁻¹ s⁻¹ were found for B20 in this work.
